This note sets out measurements from patent publication US20220281973A1 (TRUEBINDING, published 2022).

Where a chain is given by its changes, count along the chain named.

For test [1], the target named is T1, human LRIG1 extracellular domain fused to a linker-spaced 6-histidine tag, LRIG1-ECD-His (R&D systems, … (human, UniProt Q96JA1 35-794)).
T1 construct: Bought protein; also called human LRIG1-His; hLRIG1-His; not shown: linker-spaced 6-histidine tag
T1 sequence: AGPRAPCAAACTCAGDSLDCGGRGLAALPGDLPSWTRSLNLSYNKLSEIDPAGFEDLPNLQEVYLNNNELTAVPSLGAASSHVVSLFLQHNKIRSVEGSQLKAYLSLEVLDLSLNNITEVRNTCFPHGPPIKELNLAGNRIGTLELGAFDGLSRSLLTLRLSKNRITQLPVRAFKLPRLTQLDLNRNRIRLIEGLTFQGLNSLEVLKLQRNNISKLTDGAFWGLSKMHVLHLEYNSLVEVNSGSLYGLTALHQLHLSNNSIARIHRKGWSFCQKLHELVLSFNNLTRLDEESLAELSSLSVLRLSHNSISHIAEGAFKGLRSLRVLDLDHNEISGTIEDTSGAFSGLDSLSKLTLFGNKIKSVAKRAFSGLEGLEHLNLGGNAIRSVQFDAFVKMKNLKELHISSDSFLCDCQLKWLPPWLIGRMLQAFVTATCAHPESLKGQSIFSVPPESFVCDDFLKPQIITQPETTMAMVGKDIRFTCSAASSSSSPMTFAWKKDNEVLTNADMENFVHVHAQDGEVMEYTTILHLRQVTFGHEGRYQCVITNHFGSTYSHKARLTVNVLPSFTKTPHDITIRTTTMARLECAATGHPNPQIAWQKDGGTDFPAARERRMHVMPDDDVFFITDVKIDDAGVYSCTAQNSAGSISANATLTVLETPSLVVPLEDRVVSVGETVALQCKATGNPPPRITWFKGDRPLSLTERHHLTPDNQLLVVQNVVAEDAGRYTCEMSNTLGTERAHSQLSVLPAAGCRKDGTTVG
The test can be described thus: LRIG1 ECD ELISA-positive hybridoma antibodies tested in blocking ELISA on plate-bound LRIG1-ECD-His. How it is done:
Positively scoring wells were evaluated for the ability to block association of LRIG1 and VISTA. To identify LRIG1-targeted antibodies with the ability to block the interaction of LRIG1 and VISTA, purified LRIG1 and VISTA proteins were incubated in the presence of LRIG1-immunization hybridoma supernatants described above, or without antibody, and protein interaction was evaluated by ELISA. Purified human LRIG1 extracellular domain fused to a HIS tag (R&D Systems) was diluted in phosphate buffered saline (PBS) (Corning) to a concentration of 3 μg/ml and 100 μl was added to each well of a 96-well ELISA plate (Thermo Fisher, 44-2404-21). After incubating the plate at 4° C. overnight, the plate was washed three times with 300 μl of PBS with 0.05% TWEEN (VWR) (PBST) per well. The plate was then blocked for an hour with 200 μl of 2% bovine serum albumin (BSA) (Sigma) in PBST per well at room temperature with gentle rocking. Thereafter, the 2% BSA in PBST was removed and 50 μl of hybridoma supernatant diluted to 3.3 ug/mL was added to the wells. The plate was incubated for 10 minutes at room temperature with gentle rocking. Afterwards, 100 ul of 50 nM oligomerized VISTA in 100 ul PBS buffer was added per well. VISTA oligomerization was performed by Klickmer formation. Briefly, 5 nM Klickmer (Immudex) was incubated with 200 nM hVISTA-Fc-Avi-Biotin in PBS and incubated for one hour. The plate was incubated for an hour at room temperature with gentle rocking. Thereafter, the plate was washed three times with 300 μl of PBST per well, and 100 μl of avidin-HRP (1:1000) (Jackson ImmunoResearch) was then added to each well and the plate was incubated at room temperature for 30 minutes with gentle rocking. Thereafter, the plate was washed three times with 300 μl of PBST per well. 100 μl of TMB substrate (Fisher Scientific, 34029) was then added to each well. The reaction was stopped with 50 μl of 1 M HCl (VWR) per well. The plate was read using a spectrophotometer (Molecular Devices) at absorbance of 450 nm. Percent blockade of LRIG1-VISTA interaction was calculated as the fraction of signal obtained in each experimental samples of the no antibody sample less background signal.
(An ELISA detects its analyte on a solid surface through an enzyme-linked reagent.)

For another test, the target named is T2, hLRIG1 Peptide 70 (human).
T2 construct: 20 amino acid peptide of the LRIG1 peptide library
T2 peptide: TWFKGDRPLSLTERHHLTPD
The test can be described thus: peptide ELISA of Example 2, as told in Example 3. As to the method: (§1) To identify the epitopes to which LRIG1 antibodies with and without VISTA-LRIG1 blocking activity bound, a library of 20 amino acid peptides representing portions of LRIG1 was produced, and the ability to bind LRIG1 antibodies was evaluated by ELISA. At least 2 ug/ml of hLRIG1 peptide in 50 μl of PBS or 0.1 ug/ml of full-length human LRIG1 protein (R&D Systems) in 100 μl of PBS was added to the wells of a 96-well ELISA plate (Thermo Fisher, 44-2404-21). After incubating the plate at 4° C. overnight, the plate was washed three times with 300 μl of PBST per well. The plate was then blocked for an hour with 200 μl of 2% BSA in PBST per well at room temperature with gentle rocking. Thereafter, the 2% BSA in PBST was removed and 100 μl of 0.1 ug/ml of antibody in 2% BSA in PBST was added to the wells. The plate was incubated for an hour at room temperature with gentle rocking and then washed three times with 300 μl of PBST per well. Afterwards, 100 μl of anti-mouse IgG-HRP (1:4000) (Jackson ImmunoResearch) or anti-rat IgG HRP (1:4000) (Jackson ImmunoResearch) was added to the wells. The plate was incubated for 30 minutes at room temperature with gentle rocking and then washed three times with 300 μl of PBST per well. 100 μl of TMB substrate (Fisher Scientific, 34029) was then added to each well. The reaction was stopped with 50 μl of 1 M HCl (VWR) per well. The plate was read using a plate reader (Molecular Devices) at absorbance of 450 nm, and signal greater than 0.25 OD was considered evidence of peptide binding.

For the next test, the target named is T3, hLRIG1 Peptide 71 (human).
T3 construct: 20 amino acid peptide of the LRIG1 peptide library
T3 peptide: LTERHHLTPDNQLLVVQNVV
The test can be described thus: peptide ELISA of Example 2, as told in Example 3. How it is done:
as §1

B1: 802.2F4.2C7 (antibody, V domains shown)
VH: EVQLQQSGTVLARPGASVKMSCKASGYNFINSWMHWVKQRPGQGLEWIGAFYPGNSDTRYNQKFMGKAKLTAVTSASTAYMEVSSLTNEDSAVYYCTELGGDYWGQGTTLTVSS
VL: DVVMTQTPLSLPVSLGDQASISCRSSQSLVHNDGNTYLHWFLQKPGQSPKLLIHKVSNRFSGVPDRFSGSGSGTDFTLKISRVEAEDLGVYFCSQSTHVPYTFGGGTKLEIK
notes: Mouse hybridoma monoclonal
Turning to B1, the binding result in test [1] is “binds”.

B2: 802.3E6.2F9 (antibody, V domains shown)
VH: QVQLQQSGAELMKPGASVKISCKVTGHTFSSYWIEWVKQRPGHGLEWIGEILPGKGNTEYNEKFKGKATFTADTSSNTAYMQLSSLTSEDSAVYYCARNFDVWGAGTTVTVSS
VL: B1 VL with N32R, D33N, N35H, F41Y, H54Y, G71V, A85G, L88V
notes: Mouse hybridoma monoclonal
As for B2, the binding result in test [1] is recorded as “binds”.

B3: 802.4C12.3C5 (antibody, V domains shown)
VH: QVQLQQSGGELMKPGASVKLSCKATGYTFTGYWIEWVKQRPGHGLEWIGEILPGSGRTYYNEKFKGKATFTADTSSNTAYMQLSSLTTEDSAIYYCAREIYDGHYEAWYAYWGQGTLVTVSA
VL: DVVMTQTPLSLSVTIGQPASISCKSSQSLLYSDGKTYLNWLQQRPGQSPKRLMYQVSKLDPGIPDRFSGSGSETDFTLEISRVEAEDLGVYYCLQGTYYPHTFGSGTKLEIK
notes: Mouse hybridoma monoclonal
In the case of B3, the binding result in test [1] is reported as “binds”.

B4: 802.2F11.2B6 (antibody, V domains shown)
VH: QVQLQQSGAELMKPGASVKLSCKATGYTFTGYWIEWVKQRPGHGLEWIGEILPGSGSTHYNEKFKGKATFTADTSSNTAYIQLSSLTTEDSAIYYCEREVYDNDEGAWFANWGQGTLVTVSA
VL: B3 VL with E79K
notes: Mouse hybridoma monoclonal
For the molecule B4, the binding result in test [1] is “binds”.

B5: 802.1H3.2A4 (antibody, V domains shown)
VH: QVQLQQPGDELVKPGASVKLSCKASGYTFTSFWIHWVKQRPGQGLEWIGNIYPGSSSANYNEKFKSKATLTVDTSSSTAYMQLSSLTSDDSAVYYCARSSYRYSYYSWGQGTTLTVSS
VL: DVVMTQTPLSLPVSLGDQASISCRSSQSIVHSNGNTFLEWYLQKPGQSPNLLIYKVSNRFSGVPDRFSGSGSGTDFTLKISRVEAEDLGVYYCFQGSHVPLSFGAGTKLELK
notes: Mouse hybridoma monoclonal
As for B5, the binding result in test [1] is recorded as “binds”.

B6: 802.4B6.2E11 (antibody, V domains shown)
VH: B5 VH with G8D, D9T, K23R, F32Y, H35N, S55T, A58T, T74P, A97S, S104T
VL: B5 VL with H31Q, N35I, F37Y, Q43K, F60L, E86D, S102T
notes: Mouse hybridoma monoclonal
For the molecule B6, the binding result in test [1] is “binds”.

B7: 802.3D5.2G4 (antibody, V domains shown)
VH: EVKLEESGGGLVQPGGSMTLSCVASGFTFSNYWVNWVRQSPEKGLEWVAQIRLKSENYPTHYAESVKGRFTVSRDDSKSSVYLQMNNLRAEDTGIYYCTGRGYSNYAWGQGTTLTVSS
VL: B5 VL with V2I, F37Y, N50K, V99F, L101W, S102T, A105G, L111I
notes: Mouse hybridoma monoclonal
For B7, the binding result in test [1] is listed as “binds”.

B8: 802.4H12.2A9 (antibody, V domains shown)
VH: EVQLVESGGGLVKPGGSLKLSCAASGFTFSSYTMSWVRQTPEKTLEWVATISDGGRYTYYPDNVKGRFTISRDNANNNLYLQMSHLKSEDTAMYYCARGWLLRNFDFWGQGTTLTVSS
VL: B5 VL with F37Y, N50K, S102T
notes: Mouse hybridoma monoclonal
Take B8: the binding result (with hLRIG1 Peptide 70; in the test with hLRIG1 Peptide 71; in test [1]) was “binds” in each case.

B9: 802.2B7.2F9 (antibody, V domains shown)
VH: EVQLVESGGGLAKPGGSLKLSCAASGFTFSASAMSWVRQTPEKRLEWVATISDGGSYTYYPDNVKGRFTISRDNAKSNLYLQMSHLKSEDTAMYYCAGGVSTVINFDYWGQGTTLTVSS
VL: B5 VL with A19V, F37Y, N50K, S102T, A105G
notes: Mouse hybridoma monoclonal
Regarding B9, the binding result (with hLRIG1 Peptide 70; in the test with hLRIG1 Peptide 71; in test [1]) was “binds” throughout.

B10: 802.2B7.2D9 (antibody, V domains shown)
VH: QVQLKQSGPGLVQPSQSLSITCTVSGFSLTSYGVHWVRQSPGKGLEYLGVIWSGGSTDYNAAFISRLSISKDNSKSQVFFKMNSLRADDTAIYYCARNWAYYSNHYYVMDYWGQGTSVTVSS
VL: DIQMTQSPASLYAFVGETVTITCRASENIYSYLAWYHQKQGKSPQLLVYNSNSLAEGVPLRFSGSGSGTQFSLKINSLQPEDFGNYYCQHHYVTPLTFGGGTKLEMK
notes: Mouse hybridoma monoclonal
B10: in test [1], the binding result is “binds”.

B11: 802.4B6.2F6 (antibody, V domains shown)
VH: QVQLQQSGPELVKPGASVKLSCKASGYTFTSYDINWVKQRPGQGLEWIGWIYPRDGTTKYNEKFKGKATLTVDTSSSTAYMEIHSLTSEDSAVYFCAREDYGSSFHNWGQGTTLTVSS
VL: NIVMTQSPKSMSMSVGERVTLSCKASEDVDTYVSWYQQKPNQSPKLLIYGASNRYTGVPDRFTGSGSATDFTLTISSVQAEDLADYYCGQSYSYPWTFGGGTKLEIK
notes: Mouse hybridoma monoclonal
Take B11: the binding result in test [1] is “binds”.

B12: 802.3B10.2C10 (antibody, V domains shown)
VH: DVQLQESGPGLVKPSLSLSLTCTVTGYSITSGYDWHWIRHFPGNILEWMGYISYSGYTNYNPSLKSRISITHDTSKNHFFLKLNSVTTEDTATYYCARDSNWYFDVWGAGTTVTVSS
VL: B11 VL with S14L, T20I, S22N, D28N, N41E, A80G, Y92H, S93N, W96Y, G100S
notes: Mouse hybridoma monoclonal
For the molecule B12, in test [1], the binding result is “binds”.

B13: 802.3E6.2H9 (antibody, V domains shown)
VH: QVQKQQPGAELVMPGASVKLSCKASGYTFTSYWMHWVMQRPGQGLEWIGDIDPSDSYTNYNQQFKGKATLTVDISSSSAYMQLSSLTFEDSAVYYCARARVDFDYWGRGTTLTVSS
VL: EIVLTQSPALLAASPGDKVTITCSVSSSISSSTLHWYQQKSGTSPKPWIYGTSNLASGVPVRFSGSGSGTSYSLTISSMEAEDAATYYCQQWSGYPLTFGAGTKLELK
notes: Mouse hybridoma monoclonal
On to B13, for which the binding result in test [1] is “binds”.
